The source of these data is patent US20210230266A1.

Assay in all cases: cell-based or functional assay
One test deals with Human IL-11 (human) (UniProt P20809).
Test [1] deals with IL-11:IL-11Rα fusion protein (hyper IL-11) (human).
The target in test [2] is Mouse IL-11 (mouse) (UniProt P47873).
For test [3] the target is unchanged. This is another data set of the same source.

Read-outs that look alike come from different tables or passages of the source.

Sequence of Mouse IL-11 (mouse) (P47873 22-199 limits assumed): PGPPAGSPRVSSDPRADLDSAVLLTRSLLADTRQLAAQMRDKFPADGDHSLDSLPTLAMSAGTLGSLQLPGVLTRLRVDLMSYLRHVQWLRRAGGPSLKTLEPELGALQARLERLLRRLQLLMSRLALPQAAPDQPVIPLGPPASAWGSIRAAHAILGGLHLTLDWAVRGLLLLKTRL
Sequence of Human IL-11 (human) (P20809 22-199 limits assumed): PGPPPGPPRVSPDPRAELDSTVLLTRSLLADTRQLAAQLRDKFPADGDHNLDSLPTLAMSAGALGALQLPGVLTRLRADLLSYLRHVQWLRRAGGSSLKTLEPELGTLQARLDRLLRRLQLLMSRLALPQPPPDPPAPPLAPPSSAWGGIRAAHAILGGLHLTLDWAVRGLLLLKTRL
Sequence of IL-11:IL-11Rα fusion protein (hyper IL-11) (human) (chain, as listed by the source limits assumed): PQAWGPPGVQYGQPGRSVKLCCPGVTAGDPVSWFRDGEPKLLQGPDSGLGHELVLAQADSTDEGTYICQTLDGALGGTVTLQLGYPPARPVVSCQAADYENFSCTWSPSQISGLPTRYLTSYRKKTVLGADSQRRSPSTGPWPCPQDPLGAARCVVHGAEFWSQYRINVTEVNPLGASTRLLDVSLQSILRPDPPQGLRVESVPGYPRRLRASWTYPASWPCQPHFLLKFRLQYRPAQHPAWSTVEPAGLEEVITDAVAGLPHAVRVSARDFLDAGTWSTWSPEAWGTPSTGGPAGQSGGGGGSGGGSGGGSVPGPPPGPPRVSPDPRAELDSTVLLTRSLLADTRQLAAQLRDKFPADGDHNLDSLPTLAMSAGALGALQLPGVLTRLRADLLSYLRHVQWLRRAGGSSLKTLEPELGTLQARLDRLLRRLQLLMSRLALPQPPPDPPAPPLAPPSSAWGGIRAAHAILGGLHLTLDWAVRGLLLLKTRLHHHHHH

In the case of “Monoclonal mouse anti-human IL-11 antibody, IgG2A, Clone #22626, Catalog No. MAB218 (R&D Systems)”, in the test with Human IL-11 (human), the fold of αSMA-positive cells relative to unstimulated cells, human atrial fibroblasts + TGFβ1 amounted to 0.89 times; the fold of αSMA-positive cells relative to unstimulated cells, human atrial fibroblasts + TGFβ1 (fold of unstimulated) stood at 0.99; the percentage of activated (αSMA-positive) fibroblasts, human atrial fibroblasts + TGFβ1 is 28.3%. Besides, in test [1], the fold of αSMA-positive cells relative to unstimulated cells, human atrial fibroblasts + hyper IL-11 (fold of unstimulated) amounted to 1.28 and the percentage of activated (αSMA-positive) fibroblasts, human atrial fibroblasts + hyper IL-11 came out at 33.8%. Also, in the test with Mouse IL-11 (mouse) [2], the fold of αSMA-positive cells relative to unstimulated cells, mouse atrial fibroblasts + TGFβ1 (fold of unstimulated) is 1.24 and the percentage of activated (αSMA-positive) fibroblasts, mouse atrial fibroblasts + TGFβ1 stood at 39.4%. In addition, in the test with Mouse IL-11 (mouse) [3], the fold of αSMA-positive cells relative to unstimulated cells, mouse atrial fibroblasts + TGFβ1 (fold of unstimulated) amounted to 1.44 and the percentage of activated (αSMA-positive) fibroblasts, mouse atrial fibroblasts + TGFβ1 is 43%.
